The assay addresses human GLP-1 receptor (human) (UniProt P43220). Nature of the assay: cell-based or functional assay.

human GLP-1 receptor (human), sequence (P43220 24-463): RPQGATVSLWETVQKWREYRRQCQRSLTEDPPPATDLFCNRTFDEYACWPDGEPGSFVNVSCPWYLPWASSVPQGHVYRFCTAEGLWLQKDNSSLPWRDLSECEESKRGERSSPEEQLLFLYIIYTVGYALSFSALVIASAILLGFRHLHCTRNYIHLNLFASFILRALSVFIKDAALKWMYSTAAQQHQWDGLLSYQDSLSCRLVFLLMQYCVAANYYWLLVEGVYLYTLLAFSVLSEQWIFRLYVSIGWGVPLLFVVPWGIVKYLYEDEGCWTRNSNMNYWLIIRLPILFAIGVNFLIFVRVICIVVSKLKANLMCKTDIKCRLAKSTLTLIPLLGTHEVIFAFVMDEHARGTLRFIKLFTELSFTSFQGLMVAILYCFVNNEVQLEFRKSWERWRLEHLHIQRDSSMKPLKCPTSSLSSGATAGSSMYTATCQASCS

“GLP-1 7-36 (from UniProt P01275 21-180) (peptide)” had a GLP-1R BA (10 uM albumin) EC50 (pM) n = 2 (CRE-luciferase reporter in CHO 6CRE GLP1R cells) of 19 pM and a GLP-1R BA EC50 (pM) n = 3 (CRE-luciferase reporter in CHO 6CRE GLP1R cells) of 21 pM.

The values above are taken from patent US20130189255A1, “FUSIONS AND CONJUGATES OF INSULINOTROPIC AGENTS” (GLAXO GROUP LIMITED, priority 2008, published 2013).
